Biological target: human PSMA (prostate-specific membrane antigen) expressed on LNCaP cells (human, UniProt Q04609 1-750)
Test: cell-based or functional assay

human PSMA (prostate-specific membrane antigen) expressed on LNCaP cells, sequence (Q04609 whole entry): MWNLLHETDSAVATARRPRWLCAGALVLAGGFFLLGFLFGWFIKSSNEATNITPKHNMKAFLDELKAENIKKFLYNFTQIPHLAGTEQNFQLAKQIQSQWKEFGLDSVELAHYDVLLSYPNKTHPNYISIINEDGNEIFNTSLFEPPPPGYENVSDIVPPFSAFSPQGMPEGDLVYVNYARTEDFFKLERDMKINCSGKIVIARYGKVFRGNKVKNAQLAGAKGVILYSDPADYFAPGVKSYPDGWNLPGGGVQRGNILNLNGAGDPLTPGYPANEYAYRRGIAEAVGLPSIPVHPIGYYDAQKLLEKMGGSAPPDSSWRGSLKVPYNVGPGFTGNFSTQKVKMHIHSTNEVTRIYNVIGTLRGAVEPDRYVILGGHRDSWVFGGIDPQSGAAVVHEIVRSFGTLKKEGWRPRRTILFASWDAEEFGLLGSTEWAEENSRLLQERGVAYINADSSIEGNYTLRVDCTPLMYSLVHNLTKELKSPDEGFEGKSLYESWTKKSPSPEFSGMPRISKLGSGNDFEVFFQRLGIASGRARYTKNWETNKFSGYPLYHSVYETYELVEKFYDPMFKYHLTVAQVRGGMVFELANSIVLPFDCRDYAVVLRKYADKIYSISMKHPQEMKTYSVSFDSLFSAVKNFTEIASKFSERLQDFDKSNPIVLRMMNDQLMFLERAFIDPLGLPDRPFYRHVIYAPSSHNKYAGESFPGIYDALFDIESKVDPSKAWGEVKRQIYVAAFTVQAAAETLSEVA

B1: PSMA 타겟 항체-약물 접합체 (PSMA target antibody-MMAE conjugate) (other, DAR 8.36)
VH: EVQLQQSGPELVKPGASVKISCKASGYAFSSSWMNWVKQRPGQGLEWIGRIYPADGDTNYNGKFKGKATLTADKSSSTAYMQLSSLTSVDSAVYFCARCGWDGGVYYAMDYWGQGTSVTVSS
VL: DIVMTQSPASLAVSLGQRATISCRASKSVTTSGYSYMHWYQQKPGQPPKLLIYLASNLESGVPARFSGSGSGTDFTLNIHPVEEEDAATYYCQHSRELPRTFGGGTKLEIK
modifications: MMAE conjugated through a VC-PAB linker (antibody MMAE Conjugation Kit), DAR 8.36; sites not stated
**Q.** Which “cytotoxicity on LNCaP cells (Cell counting kit-8, 72 h), IC50” value does the source give for B1 here?
**A.** 0.5 nM

Source: patent publication KR20230078152A (dated 2023)
